Measurements taken from the supplement of paper PMC10065799, “High-throughput profiling of sequence recognition by tyrosine kinases and SH2 domains using bacterial peptide display” (eLife, 2023).

Assays:
AncSZ = assay: phosphorylation enrichment, bacterial display (enrichment ratio); higher = better substrate or ligand; peptides without Tyr show the background
EPHB1 = EPHB1 (UniProt P54762); assay: as above
EPHB2 = EPHB2 (UniProt P29323); assay: as above
FGFR1 = FGFR1 (UniProt P11362); assay: as above
Chain of FGFR1 (P11362 whole entry, looked up): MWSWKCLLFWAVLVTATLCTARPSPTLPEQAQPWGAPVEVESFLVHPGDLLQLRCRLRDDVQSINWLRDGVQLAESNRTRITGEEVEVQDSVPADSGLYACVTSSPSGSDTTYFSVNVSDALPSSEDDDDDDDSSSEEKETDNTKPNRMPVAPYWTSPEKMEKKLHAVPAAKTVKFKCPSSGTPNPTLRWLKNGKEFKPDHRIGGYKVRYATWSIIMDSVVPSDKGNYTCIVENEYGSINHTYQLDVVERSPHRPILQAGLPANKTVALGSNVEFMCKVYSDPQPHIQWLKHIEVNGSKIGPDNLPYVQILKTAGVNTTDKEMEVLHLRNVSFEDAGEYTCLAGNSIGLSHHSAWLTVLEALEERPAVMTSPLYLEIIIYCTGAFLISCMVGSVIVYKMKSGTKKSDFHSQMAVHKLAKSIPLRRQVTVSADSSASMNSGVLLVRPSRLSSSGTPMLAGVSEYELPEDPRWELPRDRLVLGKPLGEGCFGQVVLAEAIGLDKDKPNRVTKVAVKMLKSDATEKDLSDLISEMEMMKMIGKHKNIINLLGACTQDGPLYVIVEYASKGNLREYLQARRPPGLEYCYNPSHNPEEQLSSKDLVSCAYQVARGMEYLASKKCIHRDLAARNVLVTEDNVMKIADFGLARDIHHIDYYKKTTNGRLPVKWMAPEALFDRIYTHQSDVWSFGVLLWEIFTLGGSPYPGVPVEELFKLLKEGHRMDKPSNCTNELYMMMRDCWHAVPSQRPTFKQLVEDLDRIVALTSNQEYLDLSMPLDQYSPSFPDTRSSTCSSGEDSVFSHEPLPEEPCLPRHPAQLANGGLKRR

FGFR3 = FGFR3 (UniProt P22607); assay: as above
Fer (mouse) = assay: as above
Fes = Fes (UniProt P07332); assay: as above
Chain of Fes (P07332 whole entry, looked up): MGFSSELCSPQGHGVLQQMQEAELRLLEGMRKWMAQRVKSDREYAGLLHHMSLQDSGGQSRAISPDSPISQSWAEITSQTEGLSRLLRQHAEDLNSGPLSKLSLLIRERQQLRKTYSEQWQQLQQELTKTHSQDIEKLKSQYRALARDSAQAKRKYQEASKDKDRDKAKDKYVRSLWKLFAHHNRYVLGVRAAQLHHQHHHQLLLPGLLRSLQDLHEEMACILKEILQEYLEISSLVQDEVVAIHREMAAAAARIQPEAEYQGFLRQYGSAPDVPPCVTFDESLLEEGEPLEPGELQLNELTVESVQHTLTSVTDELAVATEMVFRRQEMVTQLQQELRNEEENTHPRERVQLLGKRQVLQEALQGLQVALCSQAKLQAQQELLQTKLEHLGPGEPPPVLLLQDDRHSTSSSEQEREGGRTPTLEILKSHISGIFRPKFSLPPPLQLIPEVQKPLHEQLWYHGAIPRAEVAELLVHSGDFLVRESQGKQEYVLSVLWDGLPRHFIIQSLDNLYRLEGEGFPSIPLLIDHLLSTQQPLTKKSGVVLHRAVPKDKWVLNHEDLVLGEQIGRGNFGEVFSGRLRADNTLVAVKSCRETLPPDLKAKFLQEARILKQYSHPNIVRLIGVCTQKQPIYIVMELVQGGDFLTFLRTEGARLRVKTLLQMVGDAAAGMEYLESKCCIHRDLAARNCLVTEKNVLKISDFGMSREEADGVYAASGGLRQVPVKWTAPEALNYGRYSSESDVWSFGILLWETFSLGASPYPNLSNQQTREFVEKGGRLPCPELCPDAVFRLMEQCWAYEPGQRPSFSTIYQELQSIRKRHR

Fyn = Fyn (UniProt P06241); assay: as above
Chain of Fyn (P06241 whole entry, looked up): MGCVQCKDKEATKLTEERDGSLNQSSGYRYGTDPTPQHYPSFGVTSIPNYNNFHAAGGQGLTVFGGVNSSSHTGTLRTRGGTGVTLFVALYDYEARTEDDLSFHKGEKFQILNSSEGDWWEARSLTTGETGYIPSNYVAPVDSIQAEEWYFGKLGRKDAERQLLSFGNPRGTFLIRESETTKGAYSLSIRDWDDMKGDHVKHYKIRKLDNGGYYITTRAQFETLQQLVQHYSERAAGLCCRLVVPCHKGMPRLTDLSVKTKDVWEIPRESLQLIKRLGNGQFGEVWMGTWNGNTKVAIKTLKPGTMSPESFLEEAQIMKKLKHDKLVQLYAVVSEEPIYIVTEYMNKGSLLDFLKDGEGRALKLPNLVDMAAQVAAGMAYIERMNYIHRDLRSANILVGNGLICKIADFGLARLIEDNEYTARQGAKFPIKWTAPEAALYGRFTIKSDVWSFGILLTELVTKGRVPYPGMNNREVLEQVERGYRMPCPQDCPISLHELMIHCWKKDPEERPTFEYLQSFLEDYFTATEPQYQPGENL

Hck = Hck (UniProt P08631); assay: as above
Chain of Hck (P08631 whole entry, looked up): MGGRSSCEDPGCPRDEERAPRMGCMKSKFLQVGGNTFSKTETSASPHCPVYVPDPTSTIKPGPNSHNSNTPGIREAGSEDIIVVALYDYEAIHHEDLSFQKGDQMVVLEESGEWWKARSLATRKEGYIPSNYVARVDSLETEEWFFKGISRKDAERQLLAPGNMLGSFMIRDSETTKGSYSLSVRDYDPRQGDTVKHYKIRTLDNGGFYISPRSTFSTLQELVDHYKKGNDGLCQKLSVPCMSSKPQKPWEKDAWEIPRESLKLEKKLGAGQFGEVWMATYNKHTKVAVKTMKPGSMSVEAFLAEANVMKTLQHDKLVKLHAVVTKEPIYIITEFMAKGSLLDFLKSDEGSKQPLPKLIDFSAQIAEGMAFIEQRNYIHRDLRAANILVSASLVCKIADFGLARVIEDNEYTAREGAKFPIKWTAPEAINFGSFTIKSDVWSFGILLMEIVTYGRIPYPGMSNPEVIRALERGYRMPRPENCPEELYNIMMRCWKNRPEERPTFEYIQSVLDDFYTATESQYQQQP

Jak2 = Jak2 (UniProt O60674); assay: as above
Chain of Jak2 (O60674 whole entry, looked up): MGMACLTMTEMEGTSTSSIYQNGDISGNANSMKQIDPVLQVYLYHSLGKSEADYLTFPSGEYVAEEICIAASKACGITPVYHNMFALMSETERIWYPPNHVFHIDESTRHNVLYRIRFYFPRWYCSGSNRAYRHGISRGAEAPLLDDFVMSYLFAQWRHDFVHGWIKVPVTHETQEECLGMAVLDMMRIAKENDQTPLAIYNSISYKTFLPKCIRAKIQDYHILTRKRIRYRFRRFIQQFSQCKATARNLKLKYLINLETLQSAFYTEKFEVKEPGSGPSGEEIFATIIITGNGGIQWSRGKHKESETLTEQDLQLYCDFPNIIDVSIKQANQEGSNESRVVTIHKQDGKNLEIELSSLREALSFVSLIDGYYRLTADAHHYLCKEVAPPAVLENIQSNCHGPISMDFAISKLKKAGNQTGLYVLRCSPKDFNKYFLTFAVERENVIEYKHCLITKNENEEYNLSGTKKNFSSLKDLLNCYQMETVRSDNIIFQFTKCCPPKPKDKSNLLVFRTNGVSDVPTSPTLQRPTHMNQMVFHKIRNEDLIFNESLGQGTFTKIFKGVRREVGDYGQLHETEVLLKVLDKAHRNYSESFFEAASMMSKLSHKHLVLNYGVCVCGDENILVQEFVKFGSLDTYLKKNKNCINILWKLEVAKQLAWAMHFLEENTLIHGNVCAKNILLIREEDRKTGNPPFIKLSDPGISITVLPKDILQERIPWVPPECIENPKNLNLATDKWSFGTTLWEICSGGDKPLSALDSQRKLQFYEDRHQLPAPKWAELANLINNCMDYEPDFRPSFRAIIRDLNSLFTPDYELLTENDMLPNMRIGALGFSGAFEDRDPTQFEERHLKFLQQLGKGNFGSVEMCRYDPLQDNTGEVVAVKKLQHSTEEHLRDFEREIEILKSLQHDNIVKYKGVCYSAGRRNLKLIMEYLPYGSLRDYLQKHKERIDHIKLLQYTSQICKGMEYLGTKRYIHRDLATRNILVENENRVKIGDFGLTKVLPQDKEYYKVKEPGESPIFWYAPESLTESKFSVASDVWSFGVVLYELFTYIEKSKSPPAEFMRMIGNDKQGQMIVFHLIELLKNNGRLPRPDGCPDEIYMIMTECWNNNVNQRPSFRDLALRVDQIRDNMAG

MERTK = MERTK (UniProt Q12866); assay: as above
Chain of MERTK (Q12866 whole entry, looked up): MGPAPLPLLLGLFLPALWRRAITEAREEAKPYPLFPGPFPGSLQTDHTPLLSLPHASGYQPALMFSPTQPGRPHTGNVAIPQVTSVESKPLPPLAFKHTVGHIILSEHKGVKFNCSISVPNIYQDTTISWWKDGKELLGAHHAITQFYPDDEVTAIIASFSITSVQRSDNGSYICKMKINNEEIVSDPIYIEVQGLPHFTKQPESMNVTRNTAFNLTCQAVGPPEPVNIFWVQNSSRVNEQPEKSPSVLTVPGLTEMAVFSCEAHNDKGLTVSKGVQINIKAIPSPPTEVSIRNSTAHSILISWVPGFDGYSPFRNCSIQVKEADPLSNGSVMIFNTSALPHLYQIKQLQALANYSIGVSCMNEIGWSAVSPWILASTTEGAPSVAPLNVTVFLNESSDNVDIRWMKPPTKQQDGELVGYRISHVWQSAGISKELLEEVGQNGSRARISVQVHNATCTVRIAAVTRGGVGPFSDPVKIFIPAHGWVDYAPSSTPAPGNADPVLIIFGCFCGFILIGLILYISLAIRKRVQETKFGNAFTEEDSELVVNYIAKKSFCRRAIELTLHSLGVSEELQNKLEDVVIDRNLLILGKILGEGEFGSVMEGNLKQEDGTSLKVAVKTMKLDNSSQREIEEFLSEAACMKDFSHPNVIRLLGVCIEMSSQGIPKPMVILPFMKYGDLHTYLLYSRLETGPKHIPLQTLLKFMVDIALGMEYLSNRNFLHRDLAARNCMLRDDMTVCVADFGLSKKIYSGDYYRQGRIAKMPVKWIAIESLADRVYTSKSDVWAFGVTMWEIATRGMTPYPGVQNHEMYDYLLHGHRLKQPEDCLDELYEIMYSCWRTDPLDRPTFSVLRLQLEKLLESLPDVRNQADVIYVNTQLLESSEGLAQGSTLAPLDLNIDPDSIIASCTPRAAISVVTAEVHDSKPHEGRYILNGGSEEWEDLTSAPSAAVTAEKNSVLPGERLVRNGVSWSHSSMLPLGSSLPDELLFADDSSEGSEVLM

c-Abl (mouse) = assay: as above
c-Src = assay: as above
Grb2 SH2 = Grb2 SH2 (UniProt P62993); assay: SH2 binding enrichment of the phosphorylated peptide, bacterial display (enrichment ratio); higher = better substrate or ligand; peptides without Tyr show the background
Chain of Grb2 SH2 (P62993 whole entry, looked up): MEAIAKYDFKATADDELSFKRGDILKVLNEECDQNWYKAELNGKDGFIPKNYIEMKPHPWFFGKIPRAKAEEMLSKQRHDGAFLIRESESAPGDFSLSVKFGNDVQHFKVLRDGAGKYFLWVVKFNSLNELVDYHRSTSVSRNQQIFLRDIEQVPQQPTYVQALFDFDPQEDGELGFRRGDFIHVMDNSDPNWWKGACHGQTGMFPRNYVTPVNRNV

SHP2-C SH2 = assay: as above
c-Src SH2 = assay: as above
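Wherever SH2 binding enrichment of the phosphorylated peptide, bacterial display is given: peptide library displayed on the E. coli surface as eCPX fusions, selected cells deep-sequenced, score is each peptide's frequency after selection divided by its frequency in the input.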
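Wherever phosphorylation enrichment, bacterial display is given: 11-residue human phosphosite peptides and single-mutation variants displayed on the E. coli surface, counted by deep sequencing, each peptide's frequency after selection divided by its frequency in the unselected input library; frequency after pTyr selection over input frequency; kinase dosed for 20-30% of maximal phosphorylation in three min.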

Sequence | phosphorylation enrichment (AncSZ) | phosphorylation enrichment (EPHB1) | phosphorylation enrichment (EPHB2) | phosphorylation enrichment (FGFR1) | phosphorylation enrichment (FGFR3) | phosphorylation enrichment (Fer (mouse)) | phosphorylation enrichment (Fes) | phosphorylation enrichment (Fyn) | phosphorylation enrichment (Hck) | phosphorylation enrichment (Jak2) | phosphorylation enrichment (MERTK) | phosphorylation enrichment (c-Abl (mouse)) | phosphorylation enrichment (c-Src) | SH2 binding enrichment (Grb2 SH2) | SH2 binding enrichment (SHP2-C SH2) | SH2 binding enrichment (c-Src SH2)
SVVVPYQPPEV [TP53_Y220_E221Q] | 0.728 | 0.645 | 0.51 | 0.494 | 0.596 | 0.467 | 0.918 | 0.399 | 0.445 | 0.784 | 0.383 | 1.51 | 0.44 | 0.969 | 0.696 | 0.535
SWSTSYSGYRC [NKAPL_Y91_Y96C] | 0.944 | 0.551 | 0.547 | 0.585 | 0.62 | 0.532 | 0.993 | 0.462 | 0.552 | 0.98 | 0.443 | 0.751 | 0.848 | 0.914 | 0.798 | 0.63
TAALWYIYSHT [ENG_Y612] | 1.15 | 0.794 | 0.832 | 0.497 | 0.689 | 0.586 | 1.14 | 1.52 | 1.3 | 0.984 | 0.878 | 0.748 | 1.82 | 0.781 | 0.918 | 0.6
TDLAFYLVREG [ASL_Y376_K380E_YF] | 1.28 | 0.709 | 0.703 | 0.574 | 1.01 | 0.555 | 1.59 | 0.437 | 0.546 | 1.24 | 0.501 | 0.85 | 0.519 | 0.634 | 0.675 | 0.612
TDRNLYSKNLV [CFAP58_Y501_S496T] | 0.564 | 0.555 | 0.56 | 0.505 | 0.531 | 1.35 | 0.737 | 0.465 | 0.654 | 0.758 | 0.959 | 0.66 | 0.627 | 0.769 | 0.559 | 0.408
TDTQLYGRFGS [ITGA2B_Y384_G380D] | 0.783 | 0.608 | 0.583 | 0.487 | 0.464 | 0.479 | 0.888 | 11.1 | 9.16 | 0.645 | 0.98 | 0.769 | 7.4 | 0.734 | 0.656 | 0.418
TEAEPYFRSLR [NPHS1_Y1138_YF] | 0.852 | 0.448 | 0.519 | 0.399 | 0.639 | 0.494 | 0.953 | 0.557 | 0.511 | 0.843 | 0.447 | 0.758 | 0.477 | 0.938 | 1.02 | 0.571
TEFSQYMRRKN [MAX_Y73_I71S_YF] | 0.76 | 0.538 | 0.625 | 0.718 | 0.626 | 0.516 | 0.901 | 0.647 | 0.715 | 0.727 | 0.727 | 0.836 | 0.735 | 0.608 | 0.279 | 0.37
TEGNGYISFNE [LCP1_Y28_D24E] | 1.09 | 0.734 | 0.595 | 0.468 | 0.636 | 0.487 | 1.01 | 0.539 | 0.528 | 0.823 | 0.499 | 0.723 | 0.573 | 0.722 | 0.889 | 14.1
TEYIQYMRRKN [MAX_Y73] | 0.734 | 0.404 | 0.528 | 0.7 | 0.609 | 0.523 | 0.615 | 0.468 | 0.7 | 0.718 | 0.545 | 0.546 | 0.491 | 0.462 | 0.737 | 0.473
TEYIQYVRRKN [MAX_Y73_M74V] | 0.712 | 0.465 | 0.425 | 0.528 | 0.488 | 0.454 | 0.573 | 0.615 | 0.589 | 0.548 | 0.647 | 0.875 | 0.657 | 0.834 | 0.64 | 0.463
TFEFRYLEDQD [CNOT3_Y746_R750Q_YF] | 1.89 | 0.646 | 0.44 | 0.497 | 0.903 | 0.438 | 1.44 | 0.506 | 0.622 | 1.92 | 0.643 | 0.997 | 0.597 | 0.908 | 0.865 | 0.602
TFGNLYGSRKQ [YIPF7_Y59_A54T_YF] | 0.629 | 0.366 | 0.398 | 0.514 | 0.421 | 0.457 | 0.788 | 0.911 | 3.44 | 0.507 | 0.641 | 0.585 | 1.81 | 0.851 | 0.512 | 0.348
TFGVLYKARNK [CDK2_Y19_V18L_YF] | 0.838 | 0.592 | 0.599 | 0.436 | 0.586 | 0.536 | 0.906 | 0.421 | 0.561 | 0.796 | 0.343 | 0.487 | 0.424 | 0.828 | 0.423 | 0.49
TFHNTYHSHMR [IL1RAPL1_Y615_Q618H] | 0.529 | 0.367 | 0.485 | 0.67 | 0.424 | 0.44 | 0.884 | 0.4 | 0.667 | 0.725 | 0.482 | 0.538 | 0.554 | 1.09 | 1.51 | 0.861
TGILLHGLASR [QARS1_Y57_Y57H] | 0.417 | 0.28 | 0.328 | 0.367 | 0.379 | 0.218 | 0.629 | 0.281 | 0.301 | 0.488 | 0.419 | 0.528 | 0.469 | 0.783 | 0.801 | 0.593
THLARYSDELR [APOA1_Y190_P189R] | 0.653 | 0.32 | 0.412 | 0.437 | 0.449 | 0.616 | 0.645 | 0.539 | 0.4 | 0.543 | 0.494 | 0.405 | 0.397 | 0.96 | 0.622 | 0.554

Sequence | phosphorylation enrichment (AncSZ) | phosphorylation enrichment (EPHB1) | phosphorylation enrichment (EPHB2) | phosphorylation enrichment (FGFR1) | phosphorylation enrichment (FGFR3) | phosphorylation enrichment (Fer (mouse)) | phosphorylation enrichment (Fes) | phosphorylation enrichment (Fyn) | phosphorylation enrichment (Hck) | phosphorylation enrichment (Jak2) | phosphorylation enrichment (MERTK) | phosphorylation enrichment (c-Abl (mouse)) | phosphorylation enrichment (c-Src) | SH2 binding enrichment (Grb2 SH2) | SH2 binding enrichment (SHP2-C SH2) | SH2 binding enrichment (c-Src SH2)
TIWDSYTTNKV [GNB1_Y85_I80T] | 0.964 | 0.537 | 0.452 | 0.509 | 0.633 | 0.485 | 1.11 | 0.444 | 0.473 | 1.19 | 0.463 | 0.699 | 0.496 | 0.855 | 0.893 | 0.388
TKDTFHKQPMF [GBA_Y451_Y451H] | 0.454 | 0.29 | 0.352 | 0.304 | 0.391 | 0.249 | 0.476 | 0.333 | 0.312 | 0.468 | 0.403 | 0.445 | 0.459 | 0.884 | 0.884 | 0.547
TKDTFYKQPMF [GBA_Y451] | 0.583 | 0.257 | 0.37 | 0.389 | 0.42 | 0.362 | 0.638 | 0.419 | 0.39 | 0.535 | 0.385 | 0.954 | 0.42 | 0.571 | 0.692 | 0.401
TKFVAYIESQG [KDM4B_Y34_N29T_YF] | 0.974 | 0.499 | 0.56 | 0.51 | 0.685 | 0.403 | 1.02 | 0.497 | 0.578 | 1.12 | 0.307 | 0.64 | 0.396 | 0.736 | 0.703 | 0.6
TLCLCYKETEE [ATP8B1_Y658_I661T] | 1.42 | 0.879 | 0.749 | 0.573 | 0.903 | 0.737 | 1.64 | 0.708 | 0.647 | 1.53 | 0.483 | 1.29 | 0.617 | 0.783 | 0.672 | 0.496
TLRKTYGEMAD [ALB_Y108_E106K] | 0.535 | 0.307 | 0.355 | 0.508 | 0.51 | 0.379 | 0.709 | 0.387 | 0.433 | 0.752 | 0.381 | 0.462 | 0.419 | 0.788 | 0.537 | 0.449
TMETKYDNISR [SETDB2_Y477_V473M] | 0.652 | 0.356 | 0.424 | 0.678 | 0.474 | 0.403 | 0.689 | 0.414 | 0.431 | 0.808 | 0.469 | 0.665 | 0.429 | 1.01 | 0.876 | 3.56
TNGFTCGSSHQ [MANEA_Y331_Y331C] | 0.608 | 0.451 | 0.486 | 0.46 | 0.545 | 0.412 | 0.836 | 0.618 | 0.477 | 0.663 | 0.435 | 0.728 | 0.392 | 0.791 | 0.642 | 0.544
TQPSPYAVYRF [RPGRIP1_Y823] | 0.912 | 1.22 | 1.84 | 0.794 | 0.795 | 9 | 0.834 | 11.5 | 7.95 | 0.898 | 8.69 | 22.2 | 10.1 | 0.847 | 1.04 | 1.7
TQRPFYKGGGG [TYROBP_Y112_YF] | 0.48 | 0.221 | 0.31 | 0.346 | 0.438 | 0.331 | 0.512 | 0.314 | 0.42 | 0.451 | 0.331 | 0.624 | 0.403 | 0.947 | 0.7 | 0.65
TRSYDYMEGGD [FGF7_Y58] | 1.02 | 0.58 | 0.593 | 0.486 | 0.731 | 0.456 | 1.03 | 0.458 | 0.488 | 0.802 | 0.45 | 0.586 | 0.447 | 0.871 | 0.538 | 6.41
TSEASYYKSLN [NGEF_Y288] | 0.743 | 0.575 | 0.498 | 0.516 | 0.707 | 0.464 | 0.789 | 0.464 | 0.407 | 0.802 | 0.535 | 0.658 | 0.49 | 0.684 | 0.518 | 0.528
TSPALYRLDLD [TRIL_Y352_A347T] | 0.943 | 0.567 | 0.51 | 0.529 | 0.721 | 0.499 | 1.24 | 0.74 | 0.817 | 0.859 | 0.395 | 0.741 | 1.44 | 0.685 | 0.465 | 0.36
TTICKYITPME [GUCY2C_Y839_S840I] | 0.99 | 0.485 | 0.466 | 0.558 | 0.56 | 0.417 | 0.873 | 0.418 | 0.469 | 0.728 | 0.421 | 0.56 | 0.458 | 0.73 | 0.598 | 0.661
TVDASYYGGRG [ANTXR2_Y380] | 0.512 | 0.411 | 0.503 | 0.546 | 0.561 | 0.559 | 0.66 | 0.73 | 1.14 | 0.609 | 0.495 | 0.576 | 0.642 | 0.763 | 0.424 | 0.604
TVETKYDNISR [SETDB2_Y477] | 0.72 | 0.71 | 0.379 | 0.545 | 0.553 | 0.433 | 0.745 | 0.519 | 0.477 | 0.667 | 0.393 | 0.643 | 0.461 | 0.959 | 0.769 | 3.03
